In paper PMC7831021 (2021):
Bridges are numbered along the chain shown (N, C = ends). Where no end group is shown, it is not given here.

Target: beta-2-microglobulin (Homo sapiens, UniProt P61769)
Assay: SPR

Chain of beta-2-microglobulin (P61769 22-119): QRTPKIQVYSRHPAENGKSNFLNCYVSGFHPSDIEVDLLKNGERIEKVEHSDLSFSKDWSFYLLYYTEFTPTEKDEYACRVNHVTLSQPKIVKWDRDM

CFETAWRQNEWC (disulfide 1-12 (inferred)) [pep331]
Kd: 300 µM
